Assay results taken from publication PMC7968997.

How the values were obtained:
Assay in all cases: fluorescence polarization
[1] = biological target: T1, RBM45 RRM1-2 quadruple mutant (Homo sapiens, UniProt Q8IUH3 23-202, F29A;F70A;F124A;Y165A)
T1 sequence: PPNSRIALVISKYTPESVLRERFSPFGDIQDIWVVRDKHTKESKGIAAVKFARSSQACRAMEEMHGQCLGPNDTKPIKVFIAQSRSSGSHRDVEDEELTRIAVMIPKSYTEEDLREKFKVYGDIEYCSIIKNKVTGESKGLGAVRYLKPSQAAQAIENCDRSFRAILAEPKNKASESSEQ

[2] = biological target: T2, RRM1 analog D53A (Homo sapiens, UniProt Q8IUH3 23-202, D53A;F124A;Y165A)
T2 sequence: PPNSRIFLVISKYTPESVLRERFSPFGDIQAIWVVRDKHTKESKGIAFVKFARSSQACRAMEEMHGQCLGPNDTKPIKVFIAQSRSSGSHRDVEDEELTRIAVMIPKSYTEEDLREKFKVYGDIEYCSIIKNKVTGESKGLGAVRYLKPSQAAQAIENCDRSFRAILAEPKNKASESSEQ

[3] = biological target: T3, RBM45 RRM1-2 F29A/F70A (RRM2 analog) (Homo sapiens, UniProt Q8IUH3 23-202, F29A;F70A)
T3 sequence: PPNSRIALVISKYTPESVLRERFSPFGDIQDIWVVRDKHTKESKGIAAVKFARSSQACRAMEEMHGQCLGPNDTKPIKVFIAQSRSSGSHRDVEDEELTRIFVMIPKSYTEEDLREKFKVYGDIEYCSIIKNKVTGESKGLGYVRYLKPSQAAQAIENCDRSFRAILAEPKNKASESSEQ

[4] = biological target: T4, RBM45 RRM1-2 F124A/Y165A (RRM1 analog) (Homo sapiens, UniProt Q8IUH3 23-202, F124A;Y165A)
T4 sequence: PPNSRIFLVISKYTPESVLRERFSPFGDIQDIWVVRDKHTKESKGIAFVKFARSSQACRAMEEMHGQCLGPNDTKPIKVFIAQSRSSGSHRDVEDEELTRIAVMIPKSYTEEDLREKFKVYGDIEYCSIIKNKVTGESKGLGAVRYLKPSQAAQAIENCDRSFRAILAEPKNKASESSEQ

[5] = biological target: T5, RRM1 analog F29A (Homo sapiens, UniProt Q8IUH3 23-202, F29A;F124A;Y165A)
T5 sequence: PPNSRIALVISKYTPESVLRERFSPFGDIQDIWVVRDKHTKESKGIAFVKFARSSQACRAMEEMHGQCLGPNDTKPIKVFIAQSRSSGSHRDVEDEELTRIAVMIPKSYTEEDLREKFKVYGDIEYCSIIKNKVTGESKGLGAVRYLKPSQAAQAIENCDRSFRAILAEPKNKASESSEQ

[6] = biological target: T6, RRM1 analog D114A (Homo sapiens, UniProt Q8IUH3 23-202, D114A;F124A;Y165A)
T6 sequence: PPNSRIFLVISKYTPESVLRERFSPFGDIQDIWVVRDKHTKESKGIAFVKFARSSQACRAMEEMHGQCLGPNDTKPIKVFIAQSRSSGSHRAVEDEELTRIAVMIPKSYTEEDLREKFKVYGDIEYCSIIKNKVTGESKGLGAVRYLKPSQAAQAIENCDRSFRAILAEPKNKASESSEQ

[7] = biological target: T7, RRM2 analog F124A (Homo sapiens, UniProt Q8IUH3 23-202, F29A;F70A;F124A)
T7 sequence: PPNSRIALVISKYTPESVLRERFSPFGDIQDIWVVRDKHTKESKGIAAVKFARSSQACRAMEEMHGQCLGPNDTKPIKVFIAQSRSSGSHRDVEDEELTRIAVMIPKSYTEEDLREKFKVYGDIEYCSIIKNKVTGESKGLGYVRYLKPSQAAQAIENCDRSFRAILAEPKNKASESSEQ

[8] = biological target: T8, RRM1 analog R27A (Homo sapiens, UniProt Q8IUH3 23-202, R27A;F124A;Y165A)
T8 sequence: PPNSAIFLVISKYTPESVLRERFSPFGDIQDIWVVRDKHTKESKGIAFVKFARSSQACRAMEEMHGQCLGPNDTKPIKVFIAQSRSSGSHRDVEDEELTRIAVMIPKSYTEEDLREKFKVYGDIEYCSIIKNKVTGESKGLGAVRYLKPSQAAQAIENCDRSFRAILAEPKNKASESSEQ

GGACGG (ssRNA) [GGACGG RNA]
binding signal [1]: ~150 fold decrease vs WT
Kd [2]: 1.99 µM
Kd [3]: 1.48 ± 0.11 µM
Kd [4]: 0.788 ± 0.092 µM
Kd [5]: 7.38 µM
Kd [6]: 1.13 µM
Kd [7]: 15.6 µM
Kd [8]: 14.4 µM
